Values joined by “and” are separate entries in the source; they are usually repeats but may differ in a detail not shown here. Equal values may be shown once.
Target: the molecule itself
Test: SEC; preparative Sephacryl S-200 gel filtration (120 mL), IMAC-purified protein at about 1 mg/mL, 1 mL injected after a 0.22 µm filter, 50 mM Tris pH 7.4, 150 mM NaCl, 5 mM CaCl2, 10 µM CT1746; sizes from a calibration curve; fractions checked by SDS-PAGE

B1: WT-Cat-L (catalytic domain with the linker of MT1-MMP), secreted without the prodomain (domain or fragment)
chain: not shown
notes: human MT1-MMP (MMP-14) catalytic domain with the linker; Found as monomer, dimer and higher multimers on gel filtration; also called Cat-L construct; source: Drosophila S2 insect cells, purified (IMAC, Sephacryl S-200)
Q: With B1 as the protein, how does the “stoichiometry N” value read?
A: 2 and > 3

— PMC9406036, “The Catalytic Domain Mediates Homomultimerization of MT1-MMP and the Prodomain Interferes with MT1-MMP Oligomeric Complex Assembly” (Biomolecules, 2022)
